We go through one substance from paper PMC3565045.

This experiment deals with Cryptococcus neoformans acetate kinase (Cryptococcus neoformans). The experiment in a line: crystal structure.

The substance “Cryptococcus neoformans acetate kinase (enzyme)” displayed a stoichiometry N of 2.
